Measured values taken from US9713645B2, “Short interference RNA gene delivery system for systemic circulation” (INDUSTRY-UNIVERSITY COOPERATION FOUNDATION HANYANG …, priority 2012, dated 2017).

Key:
cells = test: Intracellular transfection efficiency of D-R9 structures complexed with luciferase DNA; format: cell-based; conditions: complexes with luciferase DNA, charge ratio 1:5; FIG. 4
Experimental: In the PEG-R9 structure, PEG was attached to C-(D-R9)-C. To confirm whether the C-(D-R9)-C structure was optimum, the C-(D-R9)-C structure was compared with G-(D-R9)-G, G-(D-R9)-C, and C-(D-R9)-G structures. Each of the G-(D-R9)-G, G-(D-R9)-C, C-(D-R9)-G, and C-(D-R9)-C delivery systems formed complexes with luciferase DNA in a charge ratio of 1:5. The intracellular transfection efficiencies of the complexes into cells were evaluated.

SCC7 cells [1] = test: Luciferase assay for gene expression efficiency; format: cell-based; conditions: plasmid luciferase 4 μg, charge ratio 12, 48 h, FIG. 6
Experimental: In this example, luciferase gene expression was measured using a luciferase assay kit and cell viability was analyzed by MTT assay.
A luciferase assay kit was purchased from Promega (USA). A DC protein assay kit and a bovine serum albumin standard were purchased from Bio-Rad Laboratories (USA). SCC7 cells were seeded onto a 24-well plate at 2×10^4 cells/well. 24 h after seeding, the cells were transfected with plasmid luciferase (4 μg)/PEG-R9 complexes (charge ratio 12).
PEI complexes in a charge ratio of 8 were used as control. After 48-h incubation, the cells was washed with PBS and treated with 150 μl of a 1× cell lysis buffer reagent for 20 min. The cell lysate was obtained by scrapping, transferred to a 1.5 ml microtube, and centrifuged at 13,000 rpm for 3 min. The luminescence values of the cell lysate were measured using a 96-well plate photometer (Berthold Detection Systems, Germany) with a 20 s integration time and were expressed as relative luminescence units (RLU) per mg of cell protein.
Proteins were determined with the DC protein assay kit using the bovine serum albumin standard. Based on the above procedure, PEG500 and PEG1000 were compared to find which one would be most optimal.

SCC7 cells [2] = test: MTT assay for cell viability; format: cell-based; conditions: FIG. 6
Experimental: Cell viability was measured by MTT [3-(4,5-dimethylthiazol-2-yl)-2,5-diphenyltetrazolium bromide] assay.
SCC7 cells were incubated in a 24-well plate and treated with R9, PEG-R9 complexes, and PEI complexes in the specified charge ratios. 48 h after transfection, 50 μl of MTT reagent and 500 μl of a medium were added to each well, followed by culture at 37° C. for 3 h. After removal of the culture media, 500 μl of dimethyl sulfoxide (DMSO) was added to each well, followed by culture at room temperature for 20 min. The absorbance was measured at 570 nm.

[3] = Sizes and zeta potentials of siVEGF conjugates with different delivery systems; format: physicochemical; conditions: FIG. 7
Experimental: siVEGF was conjugated with different kinds of delivery systems. The sizes and zeta potentials of the conjugates were analyzed to find which delivery system would be optimal for siRNA delivery. A group of cys-R9-cys, PEG-R9, and PEG-cys-R9-cys delivery systems and a group of PEG-cys-R9-cys, PEG-TAT, and PEG-cys-TAT-cys delivery systems were used, and their mean diameters were measured and compared.

Row | Substance | intracellular transfection efficiency (cells) | intracellular gene delivery efficiency by luciferase assay (SCC7 cells [1]) | cytotoxicity (in words) (SCC7 cells [2]; 48 h after transfection) | cell viability (SCC7 cells [2]) | particle size compared with the PEG-unbound delivery system [3]
1 | Cys-(D-R9)-Cys [C-(D-R9)-C] | high transfection efficiencies |  |  |  | 
2 | PEG-Cys-(D-R9)-Cys [PEG-R9] |  | efficiently deliver the gene into the cells | much lower than the other gene delivery systems | at least 95% | smaller
